In paper PMC8625570, “Selectivity Determinants of RHO GTPase Binding to IQGAPs” (International Journal of Molecular Sciences, 2021):

Key:
Settings in all cases: both partners purified
[1] = target: T1, IQGAP1^C794 (C-terminal half of human IQGAP1 with the GRD, RGCT and CT domains) (human, UniProt P46940 863-1657); assay: stopped-flow fluorescence spectrometry; kon from 0.2 µM mGppNHp-bound RHO GTPase with 2-8 µM IQGAP1^C794; koff by displacing with 10 µM unlabeled RAC1-GppNHp from 2 µM IQGAP1^C794 with 0.2 µM GTPase; Kd calculated from the rate constants; 25 °C
T1 sequence (looked up): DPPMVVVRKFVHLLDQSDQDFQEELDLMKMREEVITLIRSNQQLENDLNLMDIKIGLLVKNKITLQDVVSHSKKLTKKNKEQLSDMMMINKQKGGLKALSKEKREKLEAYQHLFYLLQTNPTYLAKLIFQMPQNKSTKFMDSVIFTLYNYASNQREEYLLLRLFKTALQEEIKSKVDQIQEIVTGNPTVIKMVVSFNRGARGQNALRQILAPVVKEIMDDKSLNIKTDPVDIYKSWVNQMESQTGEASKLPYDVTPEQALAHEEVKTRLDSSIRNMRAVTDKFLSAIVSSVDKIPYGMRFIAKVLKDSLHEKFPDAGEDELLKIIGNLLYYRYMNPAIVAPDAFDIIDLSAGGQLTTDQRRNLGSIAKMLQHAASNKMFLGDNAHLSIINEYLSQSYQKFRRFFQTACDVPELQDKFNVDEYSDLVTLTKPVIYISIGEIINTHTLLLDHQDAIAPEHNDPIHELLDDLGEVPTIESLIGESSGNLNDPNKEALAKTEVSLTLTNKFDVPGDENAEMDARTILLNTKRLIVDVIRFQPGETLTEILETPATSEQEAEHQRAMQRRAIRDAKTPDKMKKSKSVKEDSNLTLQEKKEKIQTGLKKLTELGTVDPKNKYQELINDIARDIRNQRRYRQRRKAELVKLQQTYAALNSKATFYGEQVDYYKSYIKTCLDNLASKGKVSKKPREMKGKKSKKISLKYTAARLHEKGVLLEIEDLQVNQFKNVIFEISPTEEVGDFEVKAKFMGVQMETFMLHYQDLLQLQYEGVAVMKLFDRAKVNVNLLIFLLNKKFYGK

[2] = target: CDC42^Q61L•GppNHp (human, UniProt P60953 1-178, Q61L); assay: SEC; analytical SEC of IQGAP1 GRD with CDC42^Q61L•GppNHp or CDC42^WT•GppNHp
[3] = target: CDC42 (aa 1-178) (human, UniProt P60953 1-178); assay: as above
[4] = target: RAC1 (aa 1-179) (human, UniProt P63000 1-179); assay: stopped-flow fluorescence spectrometry; competition: 4 µM IQGAP1^C794 premixed with 40 µM RAC-binding protein (10-fold molar excess), mixed 1:1 with 0.4 µM RAC1•mGppNHp; 25 °C
[5] = target: T2, IQGAP2^C795 (C-terminal fragment of IQGAP2) (human, UniProt Q13576 780-1575); assay: stopped-flow fluorescence spectrometry; association (kobs): 2 µM IQGAP1^C794 or IQGAP2^C795 mixed with 0.2 µM mGppNHp-bound RHO GTPase; 30 mM Tris-HCl pH 7.5, 10 mM K2HPO4/KH2PO4 pH 7.4, 2 mM MgCl2, 3 mM DTT, 25 °C
T2 construct: IQGAP2, aa 780-1575; also called IQGAP2^C975
T2 sequence (looked up): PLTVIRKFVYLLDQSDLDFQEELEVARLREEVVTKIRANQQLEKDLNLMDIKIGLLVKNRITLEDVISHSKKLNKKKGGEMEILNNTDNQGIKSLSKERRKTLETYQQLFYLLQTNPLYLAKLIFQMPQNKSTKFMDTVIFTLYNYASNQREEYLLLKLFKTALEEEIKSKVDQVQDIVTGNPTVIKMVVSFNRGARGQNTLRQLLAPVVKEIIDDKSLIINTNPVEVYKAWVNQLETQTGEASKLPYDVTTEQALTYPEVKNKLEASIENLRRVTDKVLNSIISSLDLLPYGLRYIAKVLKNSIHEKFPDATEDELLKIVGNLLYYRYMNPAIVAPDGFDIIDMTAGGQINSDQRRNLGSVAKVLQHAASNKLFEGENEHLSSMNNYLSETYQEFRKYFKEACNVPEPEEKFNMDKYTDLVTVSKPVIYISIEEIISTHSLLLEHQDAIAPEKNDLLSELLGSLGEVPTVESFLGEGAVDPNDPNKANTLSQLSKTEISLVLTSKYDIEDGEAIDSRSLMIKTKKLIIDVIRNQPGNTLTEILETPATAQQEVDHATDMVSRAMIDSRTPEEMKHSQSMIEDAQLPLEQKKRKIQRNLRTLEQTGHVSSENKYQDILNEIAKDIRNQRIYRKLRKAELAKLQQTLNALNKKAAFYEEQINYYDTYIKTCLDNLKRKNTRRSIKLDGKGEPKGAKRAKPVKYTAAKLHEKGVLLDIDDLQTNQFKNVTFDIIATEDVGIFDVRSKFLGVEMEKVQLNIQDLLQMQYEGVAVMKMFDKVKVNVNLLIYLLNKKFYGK

Chain of CDC42^Q61L•GppNHp (P60953 1-178 Q61L): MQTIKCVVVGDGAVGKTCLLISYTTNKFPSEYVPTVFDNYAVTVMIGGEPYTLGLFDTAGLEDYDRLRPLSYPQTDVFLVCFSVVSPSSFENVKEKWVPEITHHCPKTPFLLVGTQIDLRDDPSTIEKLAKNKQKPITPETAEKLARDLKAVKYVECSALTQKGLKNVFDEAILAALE
Chain of CDC42 (aa 1-178) (P60953 1-178): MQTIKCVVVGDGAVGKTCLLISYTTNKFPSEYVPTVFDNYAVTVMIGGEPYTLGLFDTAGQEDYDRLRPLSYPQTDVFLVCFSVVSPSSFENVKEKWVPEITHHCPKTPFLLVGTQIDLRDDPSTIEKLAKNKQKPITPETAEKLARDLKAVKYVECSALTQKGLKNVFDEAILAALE

B1: CDC42 V85D/S88D (natural protein)
chain: not shown
B1: binds [1].

B2: RHOA-to-RAC1 variant (RHOA K27T, D28N, E47M, E54N, D76Q) (natural protein)
chain: not shown
B2: binds [1].

B3: IQGAP1^GRD (RASGAP-related domain of IQGAP1) (domain or fragment, human, UniProt P46940 962-1345, looked up)
chain: SKEKREKLEAYQHLFYLLQTNPTYLAKLIFQMPQNKSTKFMDSVIFTLYNYASNQREEYLLLRLFKTALQEEIKSKVDQIQEIVTGNPTVIKMVVSFNRGARGQNALRQILAPVVKEIMDDKSLNIKTDPVDIYKSWVNQMESQTGEASKLPYDVTPEQALAHEEVKTRLDSSIRNMRAVTDKFLSAIVSSVDKIPYGMRFIAKVLKDSLHEKFPDAGEDELLKIIGNLLYYRYMNPAIVAPDAFDIIDLSAGGQLTTDQRRNLGSIAKMLQHAASNKMFLGDNAHLSIINEYLSQSYQKFRRFFQTACDVPELQDKFNVDEYSDLVTLTKPVIYISIGEIINTHTLLLDHQDAIAPEHNDPIHELLDDLGEVPTIESLIGESS
For B3, the “stoichiometry N” value [2] was 2 CDC42^Q61L per GRD (printed as 2:1; order taken from p-0007) and the “stoichiometry N” value [3] was 1 GRD per CDC42 (printed as 2:2).

B4: CDC42 T25K/N26D (natural protein)
chain: not shown
B4: binds [1].

B5: p50^GAP (GAP domain) (domain or fragment)
chain: HVKLEQLGIPRQVLKYDDFLKSTQKSPATAPKPMPPRPPLPNQQFGVSLQHLQEKNPEQEPIPIVLRETVAYLQAHALTTEGIFRRSANTQVVREVQQKYNMGLPVDFDQYNELHLPAVILKTFLRELPEPLLTFDLYPHVVGFLNIDESQRVPATLQVLQTLPEENYQVLRFLTAFLVQISAHSDQNKMTNTNLAVVFGPNLLWAKDAAITLKAINPINTFTKFLLDHQGELFPSPDPSGL
B5: binds [4].

B6: RHOG (aa 1-178) (natural protein)
chain: not shown
B6: binds [5]; binds [1].

B7: PAK1 GBD (GTPase-binding domain of PAK1) (domain or fragment)
chain: SILPGDKTNKKKEKERPEISLPSDFEHTIHVGFDAVTGEFTGMPEQWARLLQTSNITKSEQKKNPQAVLDVLEFYNSKKTSNSQK
B7: binds [4].

B8: CDC42 Q74D (natural protein)
chain: not shown
B8: binds [1].

B9: DOCK2 DHR2 (DOCK homology region 2 domain of DOCK2) (domain or fragment)
chain: YKDNNREEMYIRYLYKLRDLHLDCDNYTEAAYTLLLHTWLLKWSDEQCASQVMQTGQQHPQTHRQLKETLYETIIGYFDKGKMWEEAISLCKELAEQYEMEIFDYELLSQNLIQQAKFYESIMKILRPKPDYFAVGYYGQGFPSFLRNKVFIYRGKEYERREDFQMQLMTQFPNAEKMNTTSAPGDDVKNAPGQYIQCFTVQPVLDEHPRFKNKPVPDQIINFYKSNYVQRFHYSRPVRRGTVDPENEFASMWIERTSFVTAYKLPGILRWFEVVHMSQTTISPLENAIETMSTANEKILMMINQYQSDETLPINPLSMLLNGIVDPAVMGGFAKYEKAFFTEEYVRDHPEDQDKLTHLKDLIAWQIPFLGAGIKIHEKRVSDNLRPFHDRMEECFKNLKMKVEKEYGVREMPD
notes: human DOCK2 DHR2 domain, aa 1211-1624; also called DOCK DHR2; source: pOPIN vector, purified; the methods say all proteins except IQGAP2^C795 were isolated as GST fusions with GST cleaved
B9: binds [4].
